In the assay the target is Chikungunya virus-like particles of the 37997 strain (chikungunya virus (strain 37997)).

Some results are limits rather than exact numbers.

B1: 506.C01 (antibody, V domains shown)
VH: QVQLQESGPGLVKPSQTLSLTCTVSGGSISSDDYYWTWIRLPPGKGLEWIGYIFYTGGTYYNPSLKSRVTISLDRSKNQFSLKLSSVTAADTAVYFCARAPETYCSTTNCYKGYFDSWGQGTLVTVSS
VL: DIQMTQSPSSVSASVGDRVTITCRASQGISSWLGWYQQKPGKAPKLLIYAASSLQSGVPSRFSGSGSGTDFTLTISSLQPEDFATYYCQQANSFPRTFGQGTKVEIK
Molecule B1 returned an FRNT neutralisation of CHIKV-37997 and CHIKV-LR 2006 on Vero cells, EC50 of under 10 ng/mL.

The record behind these values is PMC10562830.
